Assay results from patent US7485710B2, “Nucleic acids coding for adhesion factor of group B streptococcus, adhesion factors of group B streptococcus and further uses thereof” (priority 2002, dated 2009).
The star is where a group is joined. Biotin = O=C1N[C@H]2[C@H](CS[C@H]2CCCCC(=O)*)N1; Ahx = NCCCCCC(=O)O

Assays:
[1] = tested on: IgG and IgA antibodies in sera from patients infected with GBS; test: Peptide ELISA of FbsA peptides with human sera; format: binding; conditions: five sera, dilutions 1:200 and 1:1,000
Source text: The 5 biotinylated peptides (wild type <1>: GNVLERRQRDAENRSQ SEQ ID No. 113; alanine mutant peptides: <2> GAVLERRQRDAENRSQ SEQ ID No. 207, <3> GNALERRQRDAENRSQ SEQ ID No. 208, <4> GNVLEARQRDAENRSQ SEQ ID No. 211, <5> GNVLERAQRDAENRSQ SEQ ID No. 212; see also FIG. 11) were coated on Streptavidin-coated ELISA plates and analysed using 5 sera from patients infected with GBS. The patient sera were applied in a dilution of 1:200 and 1:1,000. IgG (A) and IgA (B) antibodies were detected with secondary anti-human antibodies coupled to Horse Radish Peroxidase and ABTS as substrate.
Biotin-labeled peptides were coating on Streptavidin ELISA plates (EXICON) at 10 μg/ml concentration according to the manufacturer's instructions. Sera were tested at two dilutions, 200× and 1,000×.
Highly specific Horse Radish Peroxidase (HRP)-conjugated anti-human IgG or anti-human IgA secondary antibodies (Southern Biotech) were used according to the manufacturers' recommendations (dilution: 1,000×). Antigen-antibody complexes were quantified by measuring the conversion of the substrate (ABTS) to colored product based on OD405nm readings in an automated ELISA reader (TECAN SUNRISE). Following manual coating, peptide plates were processed and analyzed by the Gemini 160 ELISA robot (TECAN) with a built-in reader (GENIOS, TECAN).

[2] = tested on: A549 cells; test: Epithelial cell adherence and internalization assay of GBS 6313 in presence of proteins; format: cell-based, human; conditions: pre-treatment of A549 cells with increasing amounts of protein
Protocol: The adherence of GBS 6313 to A549 cells (A) and its internalization into these cells (B) was arbitrarily set to 100% and the results obtained in the presence of the different fusion proteins was related to these values. Each experiment was performed at least three times in triplicate.
Adherence of GBS to epithelial cells and internalization into epithelial cells was assayed essentially as described previously (Caparon et al., 1991; Rubens et al. 1992). Briefly, A549 cells were transferred to 24-well tissue culture plates at approximately 4×10^5 cells per well and cultivated overnight in RPMI (Gibco BRL) tissue culture medium, supplemented with 10% of fetal calf serum. After replacement of the medium with 1 ml of fresh medium, the cells were infected with 5×10^6 streptococci per well and incubated at 37° C. for 2 h. The non-adherent bacteria were removed by washing three times with PBS. In adherence assays, the epithelial cells were subsequently detached from the well by the addition of trypsin/EDTA and lysed by adding 300 μl of distilled water. Adherent bacteria were quantitated by plating serial dilutions of the lysate onto THY agar plates. For internalization assays the epithelial cells were incubated after 2 h of infection for another 2 h in tissue culture medium supplemented with penicilling G (10 U) and streptomycin (0.01 mg) to kill extracellular bacteria. After three washes with PBS, the epithelial cells were detached by the addition of trypsin/EDTA and lysed in 300 μl of distilled water. The amount of intracellular bacteria was quantified by plating serial dilutions of the lysate onto THY agar plates. Each experiment was repeated at least three times in triplicate. […]
Adherence of S. agalactiae to A549 and HEL299 cells and internalization into these cells was assayed essentially as described in Example 1 for A549 cells. In some experiments, A549 cells were preincubated with different amounts of FbsA protein or FbsA-derived peptides in RPMI medium for 30 min with three subsequent washes with PBS.

[3] = tested on: A549 cells; test: Interaction of protein-coated latex beads with A549 cells (scanning electron microscopy); format: cell-based, human
Protocol: BSA-coated latex beads were used as a control.
Latex beads were either coated with BSA (A) or FbsA fusion protein (B-D) and the interaction of the coated beads with the lung epithelial cell line A549 was analyzed by scanning electron microscopy.
Approximately […] latex beads (3 μm diameter, Sigma) were washed tree times in PBS and then coated with 300 μg of fusion protein or BSA in 500 μl PBS overnight at 4° C. Coated beads were washed once in PBS and then blocked with 200 μl of 10 mg/ml BSA in PBS for 1 h at room temperature. Beads were washed twice in PBS and once in RPMI+10% FCS and then resupended in 1 ml of RPMI+10% FCS. 300 μl of beads were added to approximately 4×10^5 A549 cells in 24-well plates. The cells were incubated for 1 h at 37° C. (5% CO2), washed five times with PBS and fixed in a solution containing 3% glutaraldehyde and 5% formaldehyde in cacodylate bluffer for 45 min on ice. The samples were washed with cacodylate buffer, dehydrated in a graded series of acetone and subjected to critical point drying with CO2. Samples were then coated with a 10 nm thick gold film and examined by scanning electron microscopy as described previously (Reinscheid et al., 2001a).
Approximately 1×10^9 latex beads (3 μm diameter, Sigma) were washed three times in 25 mM 2-N-morpholinoethanesulfonic acid (MES), pH 6.8. One half was resuspended in 1.0 ml MES buffer containing 500 μg/ml FbsA fusion protein and the remaining half was resuspended in 1.0 ml MES buffer. The beads were incubated overnight at 4° C. with end-over-end rotation. After pelleting of the beads by centrifugation, the amount of remaining protein in the supernatant was determined with a Bradford protein assay kit (BioRad). The beads were washed once with MES buffer and blocked for 1 h with 10 mg/ml BSA in MES buffer at room temperature. The beads were washed twice with MES buffer, once with RPMI+10% FCS, and resuspended in RPMI+10% FCS. Confluent A549 cells in 24-well plates were inoculated with 2×10^8 beads per well in a total volume of 1.0 ml. The bead monolayer mixtures were incubated for 2 h at 37° C. in a 5% CO2 atmosphere. Cells were washed five times with PBS and fixed with 3% paraformaldehyde and 4% glutaraldehyde in […] cacodylate buffer for scanning electron microscopy. Scanning electron microscopy was performed with a Zeiss DSM 962 microscope.

[4] = target: T1, human fibrinogen (Homo sapiens, UniProt P02671+P02675+P02679); test: Western blot of fusion proteins for fibrinogen binding; conditions: His-tagged fusion proteins separated by SDS-PAGE, blotted, probed with human fibrinogen
T1 construct: purchased Sigma-Aldrich
T1 sequence (P02675 31-491): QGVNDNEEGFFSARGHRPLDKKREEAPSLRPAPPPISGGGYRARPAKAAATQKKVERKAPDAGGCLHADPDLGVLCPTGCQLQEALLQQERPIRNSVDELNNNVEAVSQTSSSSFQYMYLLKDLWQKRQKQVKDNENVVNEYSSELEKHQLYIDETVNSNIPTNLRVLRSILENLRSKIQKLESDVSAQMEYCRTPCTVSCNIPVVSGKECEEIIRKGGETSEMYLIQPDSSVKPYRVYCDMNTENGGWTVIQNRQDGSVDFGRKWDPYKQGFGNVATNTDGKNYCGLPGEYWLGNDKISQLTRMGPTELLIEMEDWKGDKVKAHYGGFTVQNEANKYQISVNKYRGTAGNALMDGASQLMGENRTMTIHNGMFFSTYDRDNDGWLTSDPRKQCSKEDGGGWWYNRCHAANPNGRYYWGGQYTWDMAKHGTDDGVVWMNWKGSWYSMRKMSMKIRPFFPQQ
T1 sequence (P02679 27-433): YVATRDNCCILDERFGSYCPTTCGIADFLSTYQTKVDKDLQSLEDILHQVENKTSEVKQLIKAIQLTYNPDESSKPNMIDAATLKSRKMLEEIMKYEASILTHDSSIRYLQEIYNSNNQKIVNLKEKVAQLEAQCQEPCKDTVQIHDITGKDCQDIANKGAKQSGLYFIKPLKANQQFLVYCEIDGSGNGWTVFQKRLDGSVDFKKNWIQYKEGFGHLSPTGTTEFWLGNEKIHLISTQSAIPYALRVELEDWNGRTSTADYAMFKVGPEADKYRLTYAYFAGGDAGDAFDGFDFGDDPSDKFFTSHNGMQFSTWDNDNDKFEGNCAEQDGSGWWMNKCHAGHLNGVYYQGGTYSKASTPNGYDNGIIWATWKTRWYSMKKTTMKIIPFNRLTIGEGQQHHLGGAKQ
T1 sequence (P02671 20-629): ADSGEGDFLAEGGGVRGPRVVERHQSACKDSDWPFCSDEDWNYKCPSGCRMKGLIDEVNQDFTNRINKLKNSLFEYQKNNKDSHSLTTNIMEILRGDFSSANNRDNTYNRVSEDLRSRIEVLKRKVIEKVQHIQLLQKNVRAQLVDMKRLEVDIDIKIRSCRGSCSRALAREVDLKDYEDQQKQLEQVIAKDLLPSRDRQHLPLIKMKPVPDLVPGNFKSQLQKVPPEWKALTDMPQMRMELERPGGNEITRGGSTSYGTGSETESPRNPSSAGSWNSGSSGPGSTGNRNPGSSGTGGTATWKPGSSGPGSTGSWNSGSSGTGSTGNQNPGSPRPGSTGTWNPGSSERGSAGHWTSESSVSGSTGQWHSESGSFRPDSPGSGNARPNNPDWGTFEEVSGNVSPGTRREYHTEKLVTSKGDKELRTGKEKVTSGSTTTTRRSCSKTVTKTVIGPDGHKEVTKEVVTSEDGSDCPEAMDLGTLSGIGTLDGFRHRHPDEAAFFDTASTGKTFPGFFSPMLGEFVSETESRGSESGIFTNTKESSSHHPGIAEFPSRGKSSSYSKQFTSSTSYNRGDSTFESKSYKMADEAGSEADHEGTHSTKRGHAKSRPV
Source text: The fibrinogen binding activity of the three proteins encoded by different constructs are indicated below the schematic FbsA drawing.
The fusion proteins were size-separated by SDS-PAGE, transferred onto a nitrocellulose membrane and tested for fibrinogen binding by Western blotting. Bound fibrinogen was detected with rabbit anti-fibrinogen antibodies, followed by peroxidase-labelled goat anti-rabbit antibodies, and visualized by chemiluminescence. PabC and Gbs0851: full-length fusion proteins; PabC-N: N-terminal 388 amino acids of PabC; PabC-C: C-terminal 222 amino acids of PabC. (C) Identification of the FbsA and PabC-binding sites within human fibrinogen by Western blot analysis. […] Bound fusion proteins were detected with mouse anti-HisTag antibodies, followed by peroxidase-conjugated goat anti-mouse IgG fab fragments and visualized by chemiluminescence. […]
Membranes that had been blocked overnight were incubated for 1 h with 2 μg/ml of human fibrinogen. […] After three washes with PBST and two washes with PBS, bound fibrinogen was detected by chemiluminescence using the ECL-kit (Amersham/Pharmacia). In control experiments, no cross-reactivity of the used antibodies with the immobilized proteins and peptides was detected.

[5] = tested on: GBS 6313; test: Competitive inhibition of 125I-labelled fibrinogen binding to GBS; set-up: species or system Streptococcus agalactiae; conditions: increasing concentrations of purified fusion protein
Protocol: FbsA-9 differs from FbsA-19 in that it contains only 9 repeats in its repeat domain. The binding assay was performed with ^125I-labelled fibrinogen in the presence of different concentrations of each fusion protein. Each experiment was performed at least in triplicate.
Each experiment was performed at least in triplicate.
Purified human fibrinogen was radiolabelled with ^125I, using the chloramin T method (Hunter and Greenwood, 1962). Binding of labelled fibrinogen to GBS was performed essentially as described by Chhatwal et al. (Chhatwal, Muller, and Blobel, 1983). Briefly, overnight cultures of GBS were pelleted by centrifugation, washed twice with phosphate-buffered saline supplemented with 0.02% Tween 20 (PBST) and adjusted photometrically to a transmission of 10% at 600 nm. A total of 0.2 ml of the bacterial suspension was added to 20 μl of ^125I-labelled fibrinogen containing 23 ng of fibrinogen. After incubation for 1 h at room temperature, the streptococci were sedimented by centrifugation and washed with 1 ml of PBST. The radioactivity of the pellet was finally measured in a gamma counter (Packard Instruments). The amount of bacterial-bound fibrinogen was calculated as the percentage of total radiolabelled fibrinogen added to the bacteria. In inhibition experiments, the binding of 23 ng of radiolabelled fibrinogen to 0.2 ml of GBS (T=10%) was determined in the presence of various amounts of FbsA fusion proteins, Bsp fusion protein or synthetic peptides. Each experiment was repeated at least three times in triplicate.

Molecule	reactivity of biotinylated peptides with IgA and IgG antibodies of patient sera [1]	adherence of S. agalactiae 6313 to A549 cells after pre-treatment of the cells [2]	invasion of A549 cells by S. agalactiae 6313 after pre-treatment of the cells [2]	binding of protein-coated latex beads to A549 cells [3]	internalization of protein-coated latex beads into A549 cells [3]	fibrinogen binding in Western blot [4]	inhibition of binding of 125I-labelled fibrinogen to GBS 6313 [5]
GNVLERAQRDAENRSQ ({Biotin-Ahx}-GNVLERAQRDAENRSQ-NH2; SMILES CC(C)C[C@H](NC(=O)[C@@H](NC(=O)[C@H](CC(N)=O)NC(=O)CNC(=O)CCCCCNC(=O)CCCC[C@@H]1SC[C@@H]2NC(=O)N[C@@H]21)C(C)C)C(=O)N[C@@H](CCC(=O)O)C(=O)N[C@@H](CCCNC(=N)N)C(=O)N[C@@H](C)C(=O)N[C@@H](CCC(N)=O)C(=O)N[C@@H](CCCNC(=N)N)C(=O)N[C@@H](CC(=O)O)C(=O)N[C@@H](C)C(=O)N[C@@H](CCC(=O)O)C(=O)N[C@@H](CC(N)=O)C(=O)N[C@@H](CCCNC(=N)N)C(=O)N[C@@H](CO)C(=O)N[C@@H](CCC(N)=O)C(N)=O) [peptide 5]	less well recognized by all sera						
GNVLERRQRDAENRSQ ({Biotin-Ahx}-GNVLERRQRDAENRSQ-NH2; SMILES CC(C)C[C@H](NC(=O)[C@@H](NC(=O)[C@H](CC(N)=O)NC(=O)CNC(=O)CCCCCNC(=O)CCCC[C@@H]1SC[C@@H]2NC(=O)N[C@@H]21)C(C)C)C(=O)N[C@@H](CCC(=O)O)C(=O)N[C@@H](CCCNC(=N)N)C(=O)N[C@@H](CCCNC(=N)N)C(=O)N[C@@H](CCC(N)=O)C(=O)N[C@@H](CCCNC(=N)N)C(=O)N[C@@H](CC(=O)O)C(=O)N[C@@H](C)C(=O)N[C@@H](CCC(=O)O)C(=O)N[C@@H](CC(N)=O)C(=O)N[C@@H](CCCNC(=N)N)C(=O)N[C@@H](CO)C(=O)N[C@@H](CCC(N)=O)C(N)=O; listed as Streptococcus agalactiae) [wild type peptide]	less well recognized by all sera						
FbsA-19: hexahistidyl-tagged FbsA protein from S. agalactiae 6313 with 19 repeats, devoid of signal peptide and membrane-spanning region (protein, left off: small tags and cut ends, hexahistidyl-tagged FbsA protein from S. agalactiae 6313 with 19 repeats, devoid of signal peptide and membrane-spanning region) MDSVGNQSQGNVLERRQRDAENRSQGNVLERRQRDVENKSQGNVLERRQRDAENKSQGNVLERRQRDAENRSQGNVLERRQRDAENRSQGNVLERRQRDAENRSQGNVLERRQRDAENRSQGNVLERRQRDAENRSQGNVLERRQRDVENKSQGNVLERRQRDAENKSQGNVLERRQRDAENRSQGNVLERRQRDAENRSQGNVLERRQRDAENRSQGNVLERRQRDAENRSQGNVLERRQRDAENRSQGNVLERRQRDAENRSQGNVLERRQRDAENRSQGNVLERRQRDAENRSQGNVLERRQRDAENKSQVGQLIGKNPLLSKSIISRENNHSSQGDSNKQSFSKKVSQVTNVANRPMLTNNSRTISVINKLPKTGDDQNV		substantially inhibited	substantially inhibited	in high numbers	observed rather rarely	binding to human fibrinogen	substantially inhibited
